doi:10.64898/2025.12.08.692793 (bioRxiv, 2025)

Biological target: metabotropic glutamate receptor 2 (mGlu2) (human, UniProt Q14416 19-872)
Assay: cryo-EM structure

metabotropic glutamate receptor 2 (mGlu2), sequence (Q14416 19-872): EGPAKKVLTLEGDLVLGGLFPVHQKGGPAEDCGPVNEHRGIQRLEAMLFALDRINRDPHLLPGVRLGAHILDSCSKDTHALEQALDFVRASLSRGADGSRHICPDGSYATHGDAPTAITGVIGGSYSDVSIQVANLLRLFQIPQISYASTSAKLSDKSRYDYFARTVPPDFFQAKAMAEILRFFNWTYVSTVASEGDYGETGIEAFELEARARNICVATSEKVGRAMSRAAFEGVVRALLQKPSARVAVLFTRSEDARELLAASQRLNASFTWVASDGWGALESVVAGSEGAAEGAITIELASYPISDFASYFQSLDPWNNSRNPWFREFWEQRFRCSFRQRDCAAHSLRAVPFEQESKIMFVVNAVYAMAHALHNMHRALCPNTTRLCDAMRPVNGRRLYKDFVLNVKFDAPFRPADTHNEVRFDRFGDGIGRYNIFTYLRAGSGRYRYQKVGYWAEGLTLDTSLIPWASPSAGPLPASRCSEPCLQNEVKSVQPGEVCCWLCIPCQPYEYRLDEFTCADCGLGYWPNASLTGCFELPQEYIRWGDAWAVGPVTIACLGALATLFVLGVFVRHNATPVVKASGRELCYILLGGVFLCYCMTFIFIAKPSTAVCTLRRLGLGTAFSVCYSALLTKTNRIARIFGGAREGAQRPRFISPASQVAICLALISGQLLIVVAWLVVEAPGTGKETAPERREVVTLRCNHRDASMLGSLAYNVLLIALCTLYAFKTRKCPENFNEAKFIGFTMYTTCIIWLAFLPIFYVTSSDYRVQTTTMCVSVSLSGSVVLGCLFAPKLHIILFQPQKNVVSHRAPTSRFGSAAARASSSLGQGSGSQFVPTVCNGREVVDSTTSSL

LPQEYIRW [FTM peptide (Force Transduction Motif, mGlu2 residues 556-563)]
binding result: binds
